Test results taken from the DeepSol protein solubility set.

Experiment: soluble on expression in E. coli; label from the status in PepcDB or PDB records
With “MGSDKIHHHHHHMKISIIGAGSVRFALQLVGDIAQTEELSREDTHIYMMDVHERRLNASYILARKYVEELNSPVKIVKTSSLDEAIDGADFIINTAYPYDPRYHDSGSQRWDEVTKVGEKHGYYRGIDSQELNMVSTYTYVLSSYPDMKLALEIAEKMKKMAPKAYLMQTANPVFEITQAVRRWTGANIVGFCHGVAGVYEVFEKLDLDPEEVDWQVAGVNHGIWLNRFRYRGEDAYPLLDEWIEKKLPEWEPKNPWDTQMSPAAMDMYKFYGMLPIGDTVRNGSWKYHYNLETKKKWFGKFGGIDNEVERPKFHEQLRRARERLIKLAEEVQQNPGMKLTEEHPEIFPKGKLSGEQHIPFINAIANNKRVRLFLNVENQGTLKDFPDDVVMELPVWVDCCGIHREKVEPDLTHRIKIFYLWPRILRMEWNLEAYISRDRKVLEEILIRDPRTKSYEQIVQVLDEIFNLPFNEELRRYYKEKL” the “soluble on expression in E. coli” value was “soluble”.
With “MLERHDRLETLRKLKELQERIAELAYLLTGEEPAAWTPRVDLLETEEHYVLLVDLPGVRPEDLELLEEGQRVTLAGVRHPLPGTYLLEERPMGTFRRTLDLPGPIEEGTAQATLRNGVLEVRFRKRPATALPLKEA” the “soluble on expression in E. coli” value was “soluble”.
In the case of “MHKNGKFIPLLALGFTFFLSGCDYFADKHLVEEMKEQQKEQETKINLLEKQQKEQEAKINLLEKQQATIINTTKKVTEVVGRVERKQRLFDYTELDPSQTHYFIINNGNIGLAGRILSIEPIDNGSVIHLDLVNLLSIPVSNLAFNMTWGTKKPSEAKDLPRWKQLLLNTKMDSTIELLPGAWTNVTLTLKGVSPNNLKYLKIGIDMENVIFDSIQPINDTKKKPKK”, the “soluble on expression in E. coli” value is reported as “not soluble”.
In the case of “MGSDKIHHHHHHMRNQILKKATVSIMLLLCINVSVADTSTSVSCAESGSASAYSRSGNSVSYSSVNCSSNNEQNAMTPAGIAVSKSYSPEPYTSLVLSGAFNTEIKTSSENRVIISGDSNYVESVEVNSSDGELIIRRPGPGNDNLNVIVESISLQKLKISGAGSTNIYGDFPDGLSVRKSGAGSINIEGQASTLKLNLSGAGNTTARDFTVDNVEIDATGAGNIAVCAKKSVAGSLAGAVHFKVYCNPSQRSVNTRGVSRVSYR”, the “soluble on expression in E. coli” value is reported as “not soluble”.
With “MPRPSAGSHHNDKLHFKKGDTVIVLSGKHKGQTGKVLLALPRDQKVVVEGVNVITKNVKPSMTNPQGGQEQRELALHASKVALVDPETGKATRVRKQIVDGKKVRVAVASGKTID” the “soluble on expression in E. coli” value was “soluble”.
With “MSKRTTPTYPVEVIRSDRRTRTVSARLVGGKILIRIPASMSKKDEKKFVAEMVDKVRTKTQSSAPTDEALLHRAQHLNRTVLENRATIGSIRWVTNQTRRWGSCSQTTNDIRISHRLQGVPDYVLDAVIIHEMVHTFIEGGHSPEFWQWADKAPKAERAKGYLEAWQRMGDVGLEHHHHHH” the “soluble on expression in E. coli” value was “not soluble”.
With “VEYSKDRLEMEIVMAAERLDITEECIRFSSHNKFFIEELNNSSSGSGRKLNFLLQEQLREANTIASKSQNADISQKVVHIKEELEKVREQLQNIE” the “soluble on expression in E. coli” value was “not soluble”.
With “MRGSHHHHHHGSELSKSSIVDKVELDHTTLYQGEMTSIKVSFSDKENQKIKPGDTITLTLPDALVGMTENDSSPRKINLNGLGEVFIYKDHVVATFNEKVESLHNVNGHFSFGIKTLITNSSQPNVIETDFGTATATQRLTIEGVTNTETGQIERDYPFFYKVGDLAGESNQVRWFLNVNLNKSDVTEDISIADRQGSGQQLNKESFTFDIVNDKETKYISLAEFEQQGYGKIDFVTDNDFNLRFYRDKARFTSFIVRYTSTITEAGQHQATFENSYDINYQLNNQDATNEKNTSQVKNVFVEGEASGNQNVEMPTEESLDIPLETIDEWEPKTPTSEQATETSEKTD” the “soluble on expression in E. coli” value was “soluble”.
With “SAPALLTAAQRTMLAQVGACNSHLTSDENMAINELRLHKPRLPKDTWFFTDPNKDPDDVVTYTLGKQLQAEGFVHITDVVATLGDAEVRSQRAEMAKGVFNKLGLHDVHVSRGRDYAMNSLQSKEHAKFLLEGHALRAGPGEIHRDSLQDMSRRLARAPHGVGIVVIAGMSDINALITTCPDMVRERVDDITIMGGVEPLKDADGFVQPDARAYNNATDMDAARSLYRKAQELGIPLRIVTKEAAYKTAVSPSFYEGIAGSGHPVGHYLRDVQKSALKGLWEGIQAGLLPGLDDSWFFRTFMPNAQIEAAQLDKNKESSFEDIWPKVTKLNLYDPLTLLASVPGAAKLLFKPKAIHTEGFGVVEQVGPDDVTHPEKAKLLMSALAKSALVQSTVAPD” the “soluble on expression in E. coli” value was “soluble”.
With “MGSDKIHHHHHHMATELPSLKGLQAFEAAARYRSVTLASNELNVTPGAVSLQIRELEARLGVQLFFRKPRSIQLTREGERYYGALRTAFRMMREATAELTARSEITVLTLSCTPTFAVQWLMPRLPSFQQQHPHVDVRISVTNRLVDFSRDDVDLAVRHGFGRYEGLESIRFIDDSTLPVCAPQLLEKYGPLREAGDLKSVPLLHDENRNEWRRWLEAAGASEVDASGGTVFIDSNGALDAAKAGHGIALTRRSLVSRELVEGALIAPFGTDMASTLAYFLVYPRRMLDNPDLVTLIDWMLSQAGSTEAGSL” the “soluble on expression in E. coli” value was “not soluble”.
In the case of “MKGNFVVSKEDWSLHRKGYDDQKRHQEKVKEAIKNNLPDLITEESIIMSNGRDVIKIPIRSLDEYKIRYNYEKNKHVGQGNGDSQVGDVVARDGSGEGQGPGKGQGAGDLPGQDYYEAEVSLMEIEEAFFSQLELPNLQRKELDQNVTQHIEFNDIRRTGLMGNIDKKRTMLAAFKRNAMNGKPGFYPIYREDLKFKTWNEVVKPESKAVVLAMMDTSGSMGMWEKYMARSFFFWMTRFLRTKYETVEIAFIAHHTEAKVVTEEEFFTKGESGGTICSSAYRKALELIETKYSPSRYNIYPFHFSDGDNLTSDNARCVKLVQELMKVSNMFGYGEVNQYNRHSTLMSAYRNIKDEKFRYYILKQKSDVFHAMRTFFRKEESKQLV”, the “soluble on expression in E. coli” value is reported as “not soluble”.
For “MPRIVFDCLIDQPAARHLIERIDALTALLVRDNVVYSAHVDHQPQSPQPDSVREELTTTYLRDRGAETADELSDSVVALDELSLQRFTIVVDGLNGSLNETAMTYSRLLTPAARLSNDALDLTDEQRYEVPAAYPWTVFVSA”, the “soluble on expression in E. coli” value was “not soluble”.
With “MTITSLDGYRWLKNDIIRGNFQPDEKLRMSLLTSRYALGVGPLREALSQLVAERLVTVVNQKGYRVASMSEQELLDIFDARANMEAMLVSLAIARGGDEWEADVLAKAHLLSKLEACDASEKMLDEWDLRHQAFHTAIVAGCGSHYLLQMRERLFDLAARYRFIWLRRTVLSVEMLEDKHDQHQTLTAAVLARDTARASELMRQHLLTPIPIIQQAMAGN” the “soluble on expression in E. coli” value was “soluble”.
With “VGEKITKMKEESHKTKQTKTEDPITKETYQARQRTLLQRDYLLVHIEDLLPKQVFAVSVINDYLVCIQAQGLEPMSDVGLLGKHQFYLRTYHYFV” the “soluble on expression in E. coli” value was “not soluble”.
In the case of “LQKVFDNTVVQNSDIKKFNESKLIKPNLMQEHALKSLESLRNVGEEKGLIISATGTGKTILCALDVRAYSPDKFLFIVHNEGILNRAIEEFKKVFPYEDESNFGLLTGKRKDHDAKFLFATIQTLSKKENYKLFNSNHFDYIVFDEAHRIAASSYQKIFNYFKPNFLLGMTATPERTDELNIFE”, the “soluble on expression in E. coli” value is reported as “not soluble”.
With “MGSDKIHHHHHHMNIAIIGSGLTGSLAAISLAKAGCRVDLYERLSDEELVNRDRTYAITHSSRKILEKLGIWSNLSRDLVPFQFLNVIDYELNKKFVFLTNDLPIPDQKYSAVGWIAEHKFIMLSILSVISNLENINKIPTSVIPNTNNYDLIVAADGSSSNTKKKLNTPSFHFKYDQMCITAKVLLRGVKSNEAFEILNSEGPFAVLPLGGDLFQVICSQSILKGTYNMNLSKSLFLDYLSTILPYGIEPDTIIDSPESFPIDFCLNYLFFSGKYIYLGETAHKIHPVGGQGLNLCWRDVDCLSKLLSIPLLKNNHSLIPLIYSISRSFDVLSISILTDSLVRYSRSNISIFYLPRLLVFFILKKSSLFRKYILNLMTNGF” the “soluble on expression in E. coli” value was “not soluble”.
